In assay [1] the target is T1, Z-GPR-pNA.
T1 sequence (peptide, N-terminal Z; C-terminal pNA): GPR

Assay [2] addresses Suc-AAP-Gln-pNA.
The target of assay [3] is T2, Suc-AAP-Leu-pNA.
T2 sequence (peptide, N-terminal Suc; C-terminal pNA): AAPL

In assay [4] the target is Suc-AAP-Orn-pNA.
For assay [5], the target named is Suc-AAP-Phe-pNA.
For assay [6], the target named is Suc-AAP-Met-pNA.
Assay [7] addresses T3, Suc-AAP-Ala-pNA.
T3 sequence (peptide, N-terminal Suc; C-terminal pNA): AAPA

Assay [8] addresses Suc-AAP-Lys-pNA.
For assay [9], the target named is Suc-AAP-Arg-pNA.
For assay [10], the target named is bovine calf skin collagen (type I collagen) (bovine) (UniProt P02453).

In patent US5747322 one finds kcat /Km and collagen cleavage (3/4, 1/4 fragmentation pattern) data, which are given here for 3 molecules.

B1: crab collagenase D226G/G189D (enzyme)
chain: IVGGVEAVPNSWPHQAALFIDDMYFCGGSLISPEWILTAAHCMDGAGFVDVVLGAHNIREDEATQVTIQSTDFTVHENYNSFVISNDIAVIRLPSPVTLTAAIATVGLPSTDVGVGTVVTPTGWGLPSDSALGISDVLRQVDVPIMSNADCDAVYGIVTDGNICIDSTGGKDTCNGDSGGPLNYNGLTYGITSFGAAAGCEAGYPGAFTRVTYFLDWIQTQTGITP
Take B1: the kcat /Km in [1] came to 14500 M⁻¹ s⁻¹; in assay [2] it was 5500 M⁻¹ s⁻¹; in assay [3] it was 51700 M⁻¹ s⁻¹; in assay [4] it was 4800 M⁻¹ s⁻¹; in assay [5], 23300 M⁻¹ s⁻¹; in assay [6], 23300 M⁻¹ s⁻¹. Moreover, the kcat /Km in assay [7] amounted to 867 M⁻¹ s⁻¹; in [8] it was 23300 M⁻¹ s⁻¹; in [9], 917000 M⁻¹ s⁻¹.

B2: crab collagenase D226G (enzyme)
chain: IVGGVEAVPNSWPHQAALFIDDMYFCGGSLISPEWILTAAHCMDGAGFVDVVLGAHNIREDEATQVTIQSTDFTVHENYNSFVISNDIAVIRLPSPVTLTAAIATVGLPSTDVGVGTVVTPTGWGLPSDSALGISDVLRQVDVPIMSNADCDAVYGIVTDGNICIDSTGGKGTCNGDSGGPLNYNGLTYGITSFGAAAGCEAGYPGAFTRVTYFLDWIQTQTGITP
For the molecule B2, the kcat /Km in [1] was determined as 367 M⁻¹ s⁻¹; in assay [2] it was 5500 M⁻¹ s⁻¹; in [3] it was 80000 M⁻¹ s⁻¹; in [4], 383 M⁻¹ s⁻¹; in assay [5], 115000 M⁻¹ s⁻¹; in [6], 48300 M⁻¹ s⁻¹. In addition, the kcat /Km was determined as 317 M⁻¹ s⁻¹ in assay [7], 400 M⁻¹ s⁻¹ in [8] and 48300 M⁻¹ s⁻¹ in assay [9].

B3: recombinant crab serine collagenase 1 (mature, wild type) (enzyme)
chain: IVGGVEAVPNSWPHQAALFIDDMYFCGGSLISPEWILTAAHCMDGAGFVDVVLGAHNIREDEATQVTIQSTDFTVHENYNSFVISNDIAVIRLPSPVTLTAAIATVGLPSTDVGVGTVVTPTGWGLPSDSALGISDVLRQVDVPIMSNADCDAVYGIVTDGNICIDSTGGKGTCNGDSGGPLNYNGLTYGITSFGAAAGCEAGYPDAFTRVTYFLDWIQTQTGITP
On to B3, for which the kcat /Km in assay [1] is 7170 M⁻¹ s⁻¹; in assay [2], 18300 M⁻¹ s⁻¹; in [3] it was 152000 M⁻¹ s⁻¹; in [4], 7830 M⁻¹ s⁻¹; in [5], 158000 M⁻¹ s⁻¹; in assay [6], 70000 M⁻¹ s⁻¹. Further, the figures for the kcat /Km in [7], in [8] and in assay [9] were 2170 M⁻¹ s⁻¹, 60000 M⁻¹ s⁻¹ and 1.33e+06 M⁻¹ s⁻¹, respectively. In [10], the collagen cleavage (3/4, 1/4 fragmentation pattern) was above 50%.
